Where “and” joins values, the source holds several entries; their conditions need not be identical. Equal values may be shown once.
Conditions: whole UniProt chain shown
[1] = Staphylococcus aureus, pH 7, 30 °C, GdnHCl, CD, Sodium phosphate/Sodium sulfate 1.0 mM/10 mM/, reversible: yes
[2] = Staphylococcus aureus, pH 7, Thermal, DSC, phosphate 100 mM, reversible: yes(75%)
[3] = Staphylococcus aureus, pH 7.5, 25 °C, Urea, CD, Tris-HCl 0.1 M, KCl 0.2 M, reversible: yes
[4] = Pyrococcus furiosus (strain ATCC 43587 / DSM 3638 / JCM 8422 / Vc1), pH 7, 40 °C, GdnHCl, CD, Tris-HCl 20 mM, reversible: yes
[5] = Pyrococcus furiosus (strain ATCC 43587 / DSM 3638 / JCM 8422 / Vc1), pH 7, 60 °C, GdnHCl, CD, Tris-HCl 20 mM, reversible: yes
[6] = Salmonella phage P22, pH 7.3, Thermal, CD, Potassium phosphate 10 mM, KCl 100 mM, reversible: yes
[7] = Salmonella phage P22, pH 7.5, 20 °C, GdnHCl, CD, Tris-HCl 50 mM, KCl 100 mM, reversible: yes
[8] = Salmonella phage P22, pH 7.5, 20 °C, GdnHCl, Fluorescence, Tris-HCl 50 mM, KCl 100 M, reversible: yes
[9] = Salmonella phage P22, pH 7.5, 20 °C, Urea, Fluorescence, Tris-HCl 50 mM, KCl 100 mM, reversible: yes
[10] = Salmonella phage P22, pH 7.5, 25 °C, GdnHCl, CD, Tris-HCl 50 mM, KCl 250 mM
[11] = Salmonella phage P22, pH 7.5, 25 °C, GdnHCl, Fluorescence, Tris-HCl 50 mM, KCl 100 M, reversible: yes
[12] = Salmonella phage P22, pH 7.5, 25 °C, Urea, CD, Tris 50 mM, KCl 50 mM
[13] = Salmonella phage P22, pH 7.5, 25 °C, Urea, CD, Tris-Cl 10 mM, KCl 250 mM
[14] = Salmonella phage P22, pH 7.5, 25 °C, Urea, CD, Tris-HCl 50 mM, KCl 250 mM, reversible: yes
[15] = Salmonella phage P22, pH 7.5, Thermal, CD, Tris-HCl 50 mM, KCl 250 mM, reversible: yes
[16] = Salmonella phage P22, pH 7.5, Thermal, CD, Tris-HCl 50 mM, KCl 100 M, reversible: yes

B1: wild type, Q9EYL5 (protein)
chain: MTKKLLTLFIVSMLILTACGKKESATTSSKNGKPLVVVYGDYKCPYCKELDEKVMPKLRKNYIDNHKVEYQFVNLAFLGKDSIVGSRASHAVLMYAPKSFLDFQKQLFAAQQDENKEWLTKELLDKHIKQLHLDKETENKIIKDYKTKDSKSWKAAEKDKKIAKDNHIKTTPTAFINGEKVEDPYDYESYEKLLKDKIK
denaturant midpoint (higher = more stable) [1]: 1.66 M
unfolding free energy [1]: 8 kcal/mol
unfolding free energy (Staphylococcus aureus, pH 7, 30 °C, Thermal, DSC, phosphate 100 mM, reversible: yes(75%)): 11.6 kcal/mol and 15.8 kcal/mol
unfolding free energy (Staphylococcus aureus, pH 7, 30 °C, Thermal, Fluorescence, Sodium phosphate 100 mM, EDTA 1 mM, reversible: yes): 11.1 kcal/mol
unfolding free energy (Staphylococcus aureus, pH 7, 30 °C, Thermal, Fluorescence, Sodium phosphate 100 mM, reversible: yes): 7 kcal/mol
unfolding free energy (Staphylococcus aureus, pH 7, 30 °C, Thermal, Fluorescence, phosphate 100 mM, reversible: yes(75%)): 8.29 kcal/mol and 12.6 kcal/mol
Tm [2]: 68.4 °C
heat capacity change of unfolding [2]: 2.22 kcal/mol/K
unfolding enthalpy (calorimetric) [2]: 148 kcal/mol
unfolding enthalpy (van 't Hoff) [2]: 137 kcal/mol
denaturant midpoint (higher = more stable) [3]: 4.2 M and 5.6 M and 5.62 M
unfolding free energy [3]: 8.7 kcal/mol and 12.3 kcal/mol and 12.9 kcal/mol

B2: Scaffolding protein wild type, P26748 (protein)
chain: MEPTTEIQATEDLTLSGDHAAASADSLVVDNANDNAGQEEGFEIVLKDDETAPKQDPAKNAEFARRRIERKRQRELEQQMEAVKRGELPESLRVNPDLPPQPDINAYLSEEGLAKYDYDNSRALAAFNAANTEWLMKAQDARSNAVAEQGRKTQEFTQQSAQYVEAARKHYDAAEKLNIPDYQEKEDAFMQLVPPAVGADIMRLFPEKSAALMYHLGANPEKARQLLAMDGQSALIELTRLSERLTLKPRGKQISSAPPADQPITGDVSAANKDAIRKQMDAAASKGDVETYRKLKAKLKGIR
Tm (Salmonella phage P22, pH 7.6, Thermal, Fluorescence, phosphate 0.3 micro M, NaCl 0.3 micro M): 58 °C

B3: Pyrrolidone-carboxylate peptidase wild type, O73944 (protein)
chain: MKVLVTGFEPFGGEKINPTERIAKDLDGIKIGDAQVFGRVLPVVFGKAKEVLEKTLEEIKPDIAIHVGLAPGRSAISIERIAVNAIDARIPDNEGKKIEDEPIVPGAPTAYFSTLPIKKIMKKLHERGIPAYISNSAGLYLCNYVMYLSLHHSATKGYPKMSGFIHVPYIPEQIIDKIGKGQVPPSMCYEMELEAVKVAIEVALEELL
denaturant m value [4]: 4.66 kcal/mol/M
denaturant midpoint (higher = more stable) [4]: 0.4 M
unfolding free energy [4]: 1.82 kcal/mol
denaturant m value [5]: 4.13 kcal/mol/M
denaturant midpoint (higher = more stable) [5]: 3.2 M
unfolding free energy [5]: 13 kcal/mol

B4: Gastrotropin wild type, P80020 (protein)
chain: MAFTGKYEFESEKNYDEFMKRLGLPDEVIERGRNFKIITEVQQDGENFTWSQSYSGGNIMSNKFTIGKECEMQTMGGKKFKATVKMEGGKVVADFPNYHQTSEVVGDKLVEISTIGDVTYERVSKRVA
unfolding free energy (Rattus norvegicus, pH 8, 25 °C, Urea, CD, NaH2PO4 25 mM/, NaCl 75 mM, reversible: Yes): 4.39 kcal/mol
unfolding free energy (Rattus norvegicus, pH 8, 25 °C, Urea, Fluorescence, NaH2PO4 25 mM/, NaCl 75 mM, reversible: Yes): 4.71 kcal/mol

B5: Transcriptional repressor arc wild type, P03050 (protein)
chain: MKGMSKMPQFNLRWPREVLDLVRKVAEENGRSVNSEIYQRVMESFKKEGRIGA
Tm [6]: 54 °C
heat capacity change of unfolding [6]: 1.6 kcal/mol/K
unfolding enthalpy (van 't Hoff) [6]: 71 kcal/mol
unfolding free energy [6]: 7.3 kcal/mol
denaturant m value [7]: 3.27 kcal/mol/M
unfolding free energy [7]: 11.1 kcal/mol
denaturant m value [8]: 2.98 kcal/mol/M
unfolding free energy [8]: 9.97 kcal/mol
denaturant m value [9]: 1.37 kcal/mol/M
denaturant midpoint (higher = more stable) [9]: 6.7 M
unfolding free energy [9]: 9.58 kcal/mol
denaturant m value [10]: 3 kcal/mol/M
denaturant midpoint (higher = more stable) [10]: 1.1 M
unfolding free energy [10]: 10.3 kcal/mol
denaturant m value [11]: 3.03 kcal/mol/M
unfolding free energy [11]: 10.1 kcal/mol
Tm (Salmonella phage P22, pH 7.5, 25 °C, Thermal, CD, Tris-HCl 50 mM, KCl 50 mM): 56.8 °C
unfolding free energy (Salmonella phage P22, pH 7.5, 25 °C, Thermal, CD, Tris-HCl 50 mM, KCl 250 mM): 11 kcal/mol
denaturant m value [12]: 1.5 kcal/mol/M
unfolding free energy [12]: 10.4 kcal/mol
denaturant m value [13]: 1.21 kcal/mol/M
unfolding free energy [13]: 9.92 kcal/mol
denaturant m value [14]: 1.36 kcal/mol/M and 1.57 kcal/mol/M and 1.64 kcal/mol/M
denaturant midpoint (higher = more stable) [14]: 4.65 M
unfolding free energy [14]: 6.3 kcal/mol and 10.9 kcal/mol and 11 kcal/mol
Tm (Salmonella phage P22, pH 7.5, Thermal, CD, Potassium phosphate 10 mM, KCl 100 mM): 54 °C
Tm (Salmonella phage P22, pH 7.5, Thermal, CD, Tris-HCl 50 mM, KCl 50 mM): 56.8 °C
Tm [15]: 58.3 °C and 59 °C and 57.9 °C
unfolding enthalpy (van 't Hoff) [15]: 62.3 kcal/mol and 58.5 kcal/mol
Tm [16]: 53.4 °C
unfolding enthalpy (van 't Hoff) [16]: 55.2 kcal/mol

— FireProtDB
